Test results reported in patent US11524046B2, “Biofilm prevention, disruption and treatment with bacteriophage lysin” (priority 2012, dated 2022).
Where two headings read alike, the source gives them in different places.

How the values were obtained:
[1] = system: Streptococcus agalactiae, Group B; assay: MIC of PlySs2, susceptible and non-susceptible bacterial strains; format: cell-based; settings: Group B (51)
[2] = system: Staphylococcus lugdiensis; assay: as above; format: cell-based; settings: Staphylococcus lugdiensis (10)
Streptococcus pneumoniae = assay: as above; format: cell-based; settings: Streptococcus pneumoniae (26)
Streptococcus mutans = assay: as above; format: cell-based; settings: Streptococcus mutans (12)
Listeria monocytogenes = assay: as above; format: cell-based; settings: Listeria monocytogenes (12)
[3] = system: Antibiotic-Resistant Staphylococcus aureus; assay: MIC of PlySs2 against antibiotic-resistant S. aureus; format: cell-based; design: unit not given here
[4] = system: Staphylococcus epidermidis strains; format: cell-based
[5] = system: Staphylococcus epidermidis biofilms; assay: Biofilm eradicating concentration (BEC), 24 h biofilms in 24 well plates, crystal violet; format: cell-based
staphylococci = assay: PlySs2 stability at 37° C. in Lactated Ringer's solution, residual lytic activity; format: physicochemical; settings: 1X MIC
Protocol: To determine the stability of PlySs2 in a simulated catheter setting, PlySs2 was incubated at various concentrations in Lactated Ringer's solution at 37° C. After 7 days, the lytic activity of PlySs2 was assessed by adding 1×10^5 staphylococci, incubating for 4 hours, then treating with proteinase K to remove residual PlySs2, and serial dilution and plating for viability. The resulting CFU value for each condition was divided by 1×10^5 to determine the % Loss of Activity.

biofilms of BAA-42 MRSA = assay: Biofilm eradication in 24-well plates, crystal violet staining; format: cell-based, S. aureus
[6] = system: S. epidermidis (strain CFS 313 NRS34) biofilm; assay: S. epidermidis catheter biofilm titration, methylene blue staining; format: cell-based; settings: MIC 8 ug/ml
Protocol: S. epidermidis biofilms in catheters were treated with PlySs2 and evaluated using methods similarly as described above for the S. aureus studies.
The results of S. epidermidis (strain CFS 313 NRS34, which is a vancomycin intermediate sensitive S. epidermidis (VISE) strain) biofilm studies on catheters treated with PlySs2 at 10×MIC and below are shown in FIG. 17. S. epidermidis biofilm is destroyed at PlySs2 concentrations down to 0.1×MIC. The MIC here is 8 ug/ml.

[7] = system: S. aureus MRSA strain BAA-42; assay: Biofilm prevention assay, 24 well plate, crystal violet; format: cell-based; settings: added with bacteria, 6 hours
[8] = system: MRSA strains CFS 553 (ATCC 43300) and CFS 992 (JMI 5381) biofilms; assay: Catheter biofilm titration of additional MRSA strains, methylene blue staining; format: cell-based, S. aureus; settings: 4 hours
[9] = system: biofilms of MRSA strain CFS 218 (MRSA strain ATCC BAA-42); assay: Scanning electron microscopy of treated catheter biofilms; format: cell-based, S. aureus; settings: 1×MIC (32 ug/ml)
From the text: Biofilms were generated on catheter tubing (PVC with DEHP as plasticizer) as above and evaluated for PlySs2 sensitivity by scanning electron microscopy (SEM). […] After fixation on the catheter surface, samples were further processed and analyzed by scanning electron microscopy at 5000× magnification (FIGS. 21A-21C). Treatment with buffer alone (ie, Lactated Ringer's Solution alone) is included as a control.

Acinetobacter baumannii = Acinetobacter baumannii (8)
Escherichia coli = Escherichia coli (6)
Lactococcus spp. = settings: N 3
[10] = system: MRSA biofilms grown on catheters (strain ATCC BAA-42); assay: Catheter biofilm residual CFU, BacTiter-Glo luciferase estimate
[11] = CFS 533, NRS6, (VISE), bloodstream USA

B1: PlySs2: bacteriophage lysin derived from Streptococcus suis, amino acid sequence of FIG. 5 / SEQ ID NO: 1; CHAP and SH3 domains (protein, listed as Streptococcus suis)
chain: MTTVNEALNNVRAQVGSGVSVGNGECYALASWYERMISPDATVGLGAGVGWVSGAIGDTISAKNIGSSYNWQANGWTVSTSGPFKAGQIVTLGATPGNPYGHVVIVEAVDGDRLTILEQNYGGKRYPVRNYYSAASYRQQVVHYITPPGTVAQSAPNLAGSRSYRETGTMTVTVDALNVRRAPNTSGEIVAVYKRGESFDYDTVIIDVNGYVWVSYIGGSGKRNYVATGATKDGKRFGNAWGTFK
[1]
  MIC 50%: 8 µg/mL
  MIC 90%: 16 µg/mL
  MIC Range: 1 to 64 µg/mL
[2]
  MIC 50%: 8 µg/mL
  MIC 90%: 8 µg/mL
  MIC Range: 8 µg/mL
Streptococcus pneumoniae
  MIC 50%: 16 µg/mL
  MIC 90%: 64 µg/mL
  MIC Range: 1 to 64 µg/mL
Streptococcus mutans
  MIC 50%: 64 µg/mL
  MIC 90%: 256 µg/mL
  MIC Range: 2 to 256 µg/mL
Listeria monocytogenes
  MIC 50%: 128 µg/mL
  MIC 90%: 512 µg/mL
  MIC Range: 1 to 512 µg/mL
[3]; Daptomycin-resistant (8)
  MIC 50%: 2
  MIC 90%: 4
  MIC Range: 2-4
[3]; Linezolid-resistant (5)
  MIC 50%: 2
  MIC 90%: 2
  MIC Range: 2-4
[3]; Vancomycin-intermediate (31)
  MIC 50%: 8
  MIC 90%: 32
  MIC Range: 1-64
[3]; Vancomycin-resistant (14)
  MIC 50%: 2
  MIC 90%: 4
  MIC Range: 1-4
[4]; CFS 224, HER 1292
  MIC: 512 µg/mL
[4]; CFS 225, HPH-6
  MIC: 128 µg/mL
[4]; CFS 226, HPH-5
  MIC: 512 µg/mL
[4]; CFS 227, HCN-4
  MIC: >512 µg/mL
[4]; CFS 272, NRS53 (VISE)
  MIC: 128 µg/mL
[4]; CFS 280, NRS101 (MRSE)
  MIC: 128 µg/mL
[4]; CFS 300, NRS8, (VISE)
  MIC: 32 µg/mL
[4]; CFS 313, NRS34 (VISE)
  MIC: 8 µg/mL
[4]; [11]
  MIC: >512 µg/mL
[4]; CFS 769, NRS101
  MIC: 64 µg/mL
[5]; CFS 166, Environmental lab contaiminant
  BEC: 5.12 µg/mL
[5]; CFS 224, HER 1292
  BEC: 5.12 µg/mL
[5]; CFS 225, HPH-6
  BEC: 0.512 µg/mL
[5]; CFS 226, HPH-5
  BEC: 5.12 µg/mL
[5]; CFS 227, HCN-4
  BEC: 5.12 µg/mL
[5]; CFS 272, NRS53 (VISE)
  BEC: 0.215 µg/mL
[5]; CFS 280, NRS101 (MRSE)
  BEC: 0.512 µg/mL
[5]; CFS 300, NRS8, (VISE)
  BEC: 0.512 µg/mL
[5]; CFS 313, NRS34 (VISE)
  BEC: 0.512 µg/mL
[5]; [11]
  BEC: 0.512 µg/mL
[5]; CFS 552, ATCC #12228 (MSSE)
  BEC: 51.2 µg/mL
[5]; CFS 769, NRS101
  BEC: 0.512 µg/mL
[5]; CFS 1152, ATCC-14990
  BEC: 5.12 µg/mL
[5]; CFS 1154, ATCC-49461
  BEC: 5.12 µg/mL
[5]; CFS 1161, NRS850-VCU028
  BEC: 5.12 µg/mL
[5]; CFS 1164, NRS853-VCU041
  BEC: 5.12 µg/mL
[5]; CFS 1165, NRS854-VCU045
  BEC: 5.12 µg/mL
[5]; CFS 1168, NRS857-VCU065
  BEC: 0.512 µg/mL
[5]; CFS 1174, NRS864-VCU112
  BEC: 51.2 µg/mL
[5]; CFS 1184, NRS874-VCU126
  BEC: 5.12 µg/mL
[5]; CFS 1185, NRS875-VCU127
  BEC: 5.12 µg/mL
[5]; CFS 1186, NRS876-VCU128
  BEC: 0.512 µg/mL
staphylococci
  % LOSS OF ACTIVITY (7 days): 58.3%
Biofilms of BAA-42 MRSA; 3.2 μg/ml (1/10×MIC), 4 hours
  biofilm dissolution: Significant dissolution
Biofilms of BAA-42 MRSA; 0.01×MIC
  time by which full clearance was observed: ≤ 24 h
Biofilms of BAA-42 MRSA; 0.01×MIC, 4 hours
  biofilm clearance: partial clearance
Biofilms of BAA-42 MRSA; 0.1×MIC
  time by which the biofilm is cleared: ≤ 4 h
Biofilms of BAA-42 MRSA; 0.32 (1/100×MIC), 4 hours
  biofilm dissolution: some dissolution
Biofilms of BAA-42 MRSA; 1×MIC 32 μg/ml
  time by which the biofilm is cleared: ≤ 2 h
[6]
  lowest concentration at which biofilm is destroyed: 0.1 ×MIC
[7]; 0.1×MIC
  prevention of biofilm formation: effectively and completely prevent
[7]; 1×MIC (32 ug/ml)
  prevention of biofilm formation: effectively and completely prevent
[8]; CFS 553 (ATCC 43300), 0.01×MIC
  catheter biofilm eradication: significantly reduced
[8]; CFS 553 (ATCC 43300), 10×MIC, 1×MIC, and 0.1×MIC
  catheter biofilm eradication: eradicated and fully dispersed
[8]; CFS 992 (JMI 5381), 0.01×MIC
  catheter biofilm eradication: significantly reduced
[8]; CFS 992 (JMI 5381), 10×MIC, 1×MIC, and 0.1×MIC
  catheter biofilm eradication: eradicated and fully dispersed
[9]; 30 seconds
  biofilm on catheter surface by SEM: rapidly diminishes
[9]; 15 minutes
  biofilm on catheter surface by SEM: almost completely removes
Acinetobacter baumannii
  MIC 50%: >512 µg/mL
  MIC 90%: >512 µg/mL
  MIC Range: >512 µg/mL
Escherichia coli
  MIC 50%: >512 µg/mL
  MIC 90%: >512 µg/mL
  MIC Range: >512 µg/mL
Lactococcus spp.
  CF-301 MIC: >512 µg/mL
[10]; 1×MIC, 24 hours, 100 CFU/ml is the limit of detection
  CFUs remaining in catheter biofilm: 100 CFU/ml
[10]; titration, CFU
  lowest concentration active at removing biofilm bacteria: 0.01 ×MIC
